Assay [1] deals with activated GST fusion protein of full-length human Akt1 (T308D/S473D) (human) (UniProt P31749). The experiment in a line: pull-down.
For assay [2] the target is unchanged. Nature of the assay: other fluorescence titration.

UniProt P31749, sequence (P31749 whole entry T308D/S473D, the tested form may be a part): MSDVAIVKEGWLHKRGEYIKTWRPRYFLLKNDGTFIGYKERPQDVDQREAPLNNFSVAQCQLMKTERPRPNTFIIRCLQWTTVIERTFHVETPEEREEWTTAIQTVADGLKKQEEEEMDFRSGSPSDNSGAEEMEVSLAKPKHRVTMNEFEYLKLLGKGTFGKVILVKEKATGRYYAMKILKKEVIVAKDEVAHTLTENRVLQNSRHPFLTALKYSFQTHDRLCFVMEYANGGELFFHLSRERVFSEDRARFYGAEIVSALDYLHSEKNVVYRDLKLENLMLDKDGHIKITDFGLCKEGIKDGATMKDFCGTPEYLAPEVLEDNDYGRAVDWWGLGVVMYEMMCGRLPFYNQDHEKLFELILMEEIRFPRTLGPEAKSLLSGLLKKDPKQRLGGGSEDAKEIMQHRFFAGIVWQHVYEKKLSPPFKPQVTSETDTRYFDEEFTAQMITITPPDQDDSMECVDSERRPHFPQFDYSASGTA

GSK-3α/β fusion protein had a percentage of recovery in assay [1] of 31.7%.

“T7-tagged CBP CH3 fragment with T1872A (from UniProt P45481 1756-1878) (domain or fragment)”: the Kd (in general, the concentration at which binding is half-saturated) in assay [2] is 1.2 nM. This lies in the single-digit nanomolar range.

“T7-tagged CBP CH3 fragment with T1872D (from UniProt P45481 1756-1878) (domain or fragment)” came in with an equilibrium dissociation constant (Kd) in assay [2] of 4.07 nM. Compared with the last substance, the Kd is about 3.4-fold higher.

These data come from publication PMC2841437.
